The values below come from PMC3017832, “Molecular analysis of phosphomannomutase (PMM) genes reveals a unique PMM duplication event in diverse Triticeae species and the main PMM isozymes in bread wheat tissues” (BMC Plant Biology, 2010).

Holding throughout (experiment): spectrophotometric PMM assay (as in earlier work)
Common to all, as to type: biochemical, Triticum aestivum
Common to all, as to conditions: average of three experiments; temperature and pH not given

Substrate in series [1]: O=P(O)(O)O[C@H]1O[C@H](CO)[C@@H](O)[C@H](O)[C@@H]1O
An excerpt: spectrophotometric PMM assay (as in earlier work) on TaPMM-D2 | The average Km (mM, mannose-1-phosphate) values calculated for recombinant A1, D1 and D2 proteins

Substrate in series [2]: O=P(O)(O)O[C@H]1O[C@H](CO)[C@@H](O)[C@H](O)[C@@H]1O
From the text:
spectrophotometric PMM assay (as in earlier work) on TaPMM-D1 | The average Km (mM, mannose-1-phosphate) values calculated for recombinant A1, D1 and D2 proteins
The source holds these as a separate data set.

Substrate in series [3]: O=P(O)(O)O[C@H]1O[C@H](CO)[C@@H](O)[C@H](O)[C@@H]1O
From the text: spectrophotometric PMM assay (as in earlier work) on TaPMM-A1 | The average Km (mM, mannose-1-phosphate) values calculated for recombinant A1, D1 and D2 proteins
The source holds these as a separate data set.

B1: TaPMM-D2 (Triticum aestivum) (protein)
chain: MVASAARKNAGVLALFDVDGTLTAPRKEVTPEMLEFMKRLRENVTVGVVGGSDLVKISEQLGKSVITDYDYVFSENGLVAHKDGKLIGTQSLKTYLGDDQLKEFINFTLHYIADLDIPIKRGTFIEFRSGMINVSPIGRNCSQEERDDFEKYDKVHNVRPKMVSMLREKFAHLNLTFSIGGQISFDVFPHGWDKTYCLRYLDEFKEIHFFGDKTYKGGNDHEIFESDRTVGHTVTSPDDTVQQCRSIFLSK
As usually defined, the Km is the substrate concentration at which the rate is half of its maximum. In the case of B1, the Km in series [1] is 480 ± 20 µM.

B2: TaPMM-D1 (Triticum aestivum) (protein)
chain: MAAAAAARKTAGVLALFDVDGTLTAPRKEVTPEMLEFMKRLRENVTVGVVGGSDLVKISEQLGKSVITDYDYVFSENGLVAHKDGKLIGTQSLKTYLGDDQLKEFINFTLHYIADLDIPIKRGTFIEFRSGMINVSPIGRNCSQEERDDFEKYDKVHNVRPKMVSVLREKFAHLNLTFSIGGQISFDVFPQGWDKTYCLRYLEEFKEIHFFGDKTYKGGNDHEIFESERTVGHTVTSPNDTVQQCKSIFLSE
As to B2, the Km in series [2] is 400 ± 20 µM.

B3: TaPMM-A1 (Triticum aestivum) (protein)
chain: MAAARKDAGVLALFDVDGTLTAPRKEVTPEMLEFMKRLRENVTVGVVGGSDLVKISEQLGKSVITDYDYVFSENGLVAHKDGKLIGTQSLKTYLGDDQLKEFINFTLHYIADLDIPIKRGTFIEFRSGMINVSPIGRNCSQEERDDFEKYDKVHNVRPKMVSVLREKFAHLNLTFSIGGQISFDVFPQGWDKTYCLRYLEEFKEIHFFGDKTYKGGNDHEIFESDRTVGHTVTSPNDTVQQCKSIFLSE
Consider B3, for which the Km in series [3] worked out at 460 ± 20 µM.
